We go through 3 substances from paper PMC12071944, “Interaction Between Glucagon-like Peptide 1 and Its Analogs with Amyloid-β Peptide Affects Its Fibrillation and Cytotoxicity” (International Journal of Molecular Sciences, 2025).

Values joined by “and” are separate entries in the source; they are usually repeats but may differ in a detail not shown here. Equal values may be shown once. Read-outs that look alike come from different tables or passages of the source.

Test [1] addresses exenatide (UniProt P26349). The test is described as follows: dynamic light scattering; 29 µM Exen; 25 °C; 25 mM Tris-HCl, 140 mM NaCl, 4.9 mM KCl, […] CaCl2, 1 mM MgCl2, pH 7.4; degree of multimerization MWRh/MWm.
The target of test [2] is amyloid-β peptide, residues 1-40 (human) (UniProt P05067).
Test [3] deals with amyloid-β peptide, residues 1-42 (human) (UniProt P05067).
Test [4] addresses exenatide (UniProt P26349). In words: dynamic light scattering; […] µM Exen; 25 °C; 25 mM Tris-HCl, 140 mM NaCl, 4.9 mM KCl, […] CaCl2, 1 mM MgCl2, pH 7.4; degree of multimerization MWRh/MWm.
For test [5], the target named is exenatide (UniProt P26349). In words: dynamic light scattering; 234 µM Exen; 25 °C; 25 mM Tris-HCl, 140 mM NaCl, 4.9 mM KCl, […] CaCl2, 1 mM MgCl2, pH 7.4; degree of multimerization MWRh/MWm.
Test [6] addresses exenatide (UniProt P26349). The test is described as follows: dynamic light scattering; 115 µM Exen; 25 °C; 25 mM Tris-HCl, 140 mM NaCl, 4.9 mM KCl, […] CaCl2, 1 mM MgCl2, pH 7.4; degree of multimerization MWRh/MWm.
For test [7], the target named is amyloid-β peptide, residues 1-40 (human) (UniProt P05067). In words: BLI; Aβ40/Aβ42 immobilised on amine-reactive sensors (EDAC/sulfo-NHS), washed with 0.5% SDS; analyte 4–15 µM Exen; 25 °C; 20 mM Tris-HCl, 140 mM NaCl, 4.9 mM KCl, […] CaCl2, 1 mM MgCl2, pH 7.4; curves not fitted, KD estimated as the level of the analyte concentrations; apparent.
Test [8] concerns the target amyloid-β peptide, residues 1-42 (human) (UniProt P05067). The description is as above.
The target of test [9] is amyloid-β peptide, residues 1-40 (human) (UniProt P05067). The test is described as follows: BLI; Aβ40/Aβ42 immobilised on amine-reactive sensors (EDAC/sulfo-NHS), washed with 0.5% SDS; analyte 10 µM Lira; 25 °C; 20 mM Tris-HCl, 140 mM NaCl, 4.9 mM KCl, […] CaCl2, 1 mM MgCl2, pH 7.4; single binding site model (1), fitted for each analyte concentration; apparent constants.
Test [10] addresses amyloid-β peptide, residues 1-42 (human) (UniProt P05067). The test is described as above.
The target of test [11] is amyloid-β peptide, residues 1-40 (human) (UniProt P05067). The test is described as follows: SPR.
For test [12], the target named is amyloid-β peptide, residues 1-42 (human) (UniProt P05067). In words: SPR.
Test [13] addresses liraglutide (human). The test is described as follows: dynamic light scattering; 6 µM Lira; 25 °C; 25 mM Tris-HCl, 140 mM NaCl, 4.9 mM KCl, […] CaCl2, 1 mM MgCl2, pH 7.4; degree of multimerization MWRh/MWm.
The target of test [14] is liraglutide (human). In words: dynamic light scattering; 13 µM Lira; 25 °C; 25 mM Tris-HCl, 140 mM NaCl, 4.9 mM KCl, […] CaCl2, 1 mM MgCl2, pH 7.4; degree of multimerization MWRh/MWm.
Test [15] addresses liraglutide (human). The test is described as follows: dynamic light scattering; 52 µM Lira; 25 °C; 25 mM Tris-HCl, 140 mM NaCl, 4.9 mM KCl, […] CaCl2, 1 mM MgCl2, pH 7.4; degree of multimerization MWRh/MWm.
Test [16] addresses amyloid-β peptide, residues 1-40 (human) (UniProt P05067). The test is described as follows: BLI; Aβ40/Aβ42 immobilised on amine-reactive sensors (EDAC/sulfo-NHS), washed with 0.5% SDS; analyte 20 µM Lira; 25 °C; 20 mM Tris-HCl, 140 mM NaCl, 4.9 mM KCl, […] CaCl2, 1 mM MgCl2, pH 7.4; single binding site model (1), fitted for each analyte concentration; apparent constants.
Test [17] concerns the target amyloid-β peptide, residues 1-42 (human) (UniProt P05067). The description is as above.
In test [18] the target is amyloid-β peptide, residues 1-40 (human) (UniProt P05067). In words: BLI; Aβ40/Aβ42 immobilised on amine-reactive sensors (EDAC/sulfo-NHS), washed with 0.5% SDS; analyte 5 µM Lira; 25 °C; 20 mM Tris-HCl, 140 mM NaCl, 4.9 mM KCl, […] CaCl2, 1 mM MgCl2, pH 7.4; single binding site model (1), fitted for each analyte concentration; apparent constants.
In test [19] the target is amyloid-β peptide, residues 1-42 (human) (UniProt P05067). The description is as above.
Another test has as its target semaglutide (human). The test is described as follows: dynamic light scattering; 12 µM Sema; 25 °C; 25 mM Tris-HCl, 140 mM NaCl, 4.9 mM KCl, […] CaCl2, 1 mM MgCl2, pH 7.4; degree of multimerization MWRh/MWm.
Test [20] addresses amyloid-β peptide, residues 1-40 (human) (UniProt P05067). The test is described as follows: BLI; Aβ40/Aβ42 immobilised on amine-reactive sensors (EDAC/sulfo-NHS), washed with 0.5% SDS; analyte Sema, 17 µM on Aβ40 and 38 µM on Aβ42; 25 °C; 20 mM HEPES-KOH, 140 mM NaCl, 4.9 mM KCl, […] CaCl2, 1 mM MgCl2, pH 7.4; heterogeneous ligand scheme (2).
The target of test [21] is amyloid-β peptide, residues 1-42 (human) (UniProt P05067). Described as above.

On to “exenatide (from UniProt P26349 48-87) (peptide)”, for which the stoichiometry N with exenatide [1] is 2.1; with exenatide [4] it was 1.6; with exenatide [5] it was 5.88; in the test with exenatide [6], 6.4. Moreover, the Kd in [2] is 1000 nM; in test [3] it was 1000 nM; in [7] it was 4 µM and 15 µM; in [8], 4 µM and 15 µM.

On to liraglutide (peptide), for which the Kd came out at 48 nM in test [9]; 60 nM in test [10]; 110 nM in test [16]; 110 nM in test [17]; 42 nM in [18]; 45 nM in test [19]. The koff in test [9] was 0.000346 s⁻¹; in test [10], 0.000482 s⁻¹; in test [16] it was 0.0009 s⁻¹; in test [17] it was 0.0006 s⁻¹; in [18], 0.000556 s⁻¹; in test [19], 0.00054 s⁻¹. For the same substance, the on-rate constant (kon) in [9] came to 7300 M⁻¹ s⁻¹; in [10], 8000 M⁻¹ s⁻¹; in [16], 8400 M⁻¹ s⁻¹; in test [17] it was 5700 M⁻¹ s⁻¹; in test [18] it was 13400 M⁻¹ s⁻¹; in test [19], 12100 M⁻¹ s⁻¹. The results for the KD1 (heterogeneous ligand model, site 1) in [11] and in test [12] were 950 nM and 520 nM, respectively. The KD2 (heterogeneous ligand model, site 2) in test [11] is 9.1 µM; in [12] it was 5.6 µM. Besides, the ka1 (heterogeneous ligand model, site 1) turned out to be 1440 M⁻¹ s⁻¹ in test [11] and 2240 M⁻¹ s⁻¹ in [12]. Besides, the ka2 (heterogeneous ligand model, site 2) in [11] was found to be 1900 M⁻¹ s⁻¹; in test [12] it was 2900 M⁻¹ s⁻¹. For the same substance, the kd1 (heterogeneous ligand model, site 1) in [11] was 0.00119 s⁻¹; in test [12] it was 0.00114 s⁻¹. Moreover, the kd2 (heterogeneous ligand model, site 2) stood at 0.017 s⁻¹ in test [11] and 0.0164 s⁻¹ in test [12]. Also, the stoichiometry N in the test with liraglutide (human) [13] is 8.2; in the test with liraglutide (human) [14], 6.5; with liraglutide (human) [15] it was 16.3.

In test [11], semaglutide (peptide) had a KD1 (heterogeneous ligand model, site 1) of 340 nM; a KD2 (heterogeneous ligand model, site 2) of 1.2 µM; a ka1 (heterogeneous ligand model, site 1) of 9600 M⁻¹ s⁻¹; a ka2 (heterogeneous ligand model, site 2) of 39000 M⁻¹ s⁻¹. In [11], this substance gave a kd1 (heterogeneous ligand model, site 1) of 0.0032 s⁻¹ and a kd2 (heterogeneous ligand model, site 2) of 0.0432 s⁻¹. Moreover, in [12], the KD1 (heterogeneous ligand model, site 1) was found to be 340 nM; the KD2 (heterogeneous ligand model, site 2) was found to be 0.3 µM; the ka1 (heterogeneous ligand model, site 1) was 12600 M⁻¹ s⁻¹; the ka2 (heterogeneous ligand model, site 2) was determined as 134000 M⁻¹ s⁻¹. Also, in test [12], the kd1 (heterogeneous ligand model, site 1) was found to be 0.0041 s⁻¹ and the kd2 (heterogeneous ligand model, site 2) is 0.038 s⁻¹. In addition, in the test with semaglutide (human), the stoichiometry N was found to be 1.9. Also, in [20], the KD1 (heterogeneous ligand scheme, site 1) worked out at 12 µM; the KD2 (heterogeneous ligand scheme, site 2) turned out to be 16 µM; the ka1 (heterogeneous ligand scheme, site 1) worked out at 310 M⁻¹ s⁻¹; the ka2 (heterogeneous ligand scheme, site 2) was 5700 M⁻¹ s⁻¹. In test [20], the kd1 (heterogeneous ligand scheme, site 1) came out at 0.0037 s⁻¹ and the kd2 (heterogeneous ligand scheme, site 2) came to 0.091 s⁻¹. In [21], this substance came in with a KD1 (heterogeneous ligand scheme, site 1) of 11 µM; a KD2 (heterogeneous ligand scheme, site 2) of 22 µM; a ka1 (heterogeneous ligand scheme, site 1) of 582 M⁻¹ s⁻¹; a ka2 (heterogeneous ligand scheme, site 2) of 6100 M⁻¹ s⁻¹. In test [21], the kd1 (heterogeneous ligand scheme, site 1) amounted to 0.0064 s⁻¹ and the kd2 (heterogeneous ligand scheme, site 2) was found to be 0.134 s⁻¹.
